Reference: patent US20160185837A1 (Medimmune Limited, priority 2013, published 2016)
Positions count from the first letter of the chain named.

T1: human GIP receptor (hGIPr) (Homo sapiens, UniProt P48546)
T1 construct: expressed in transfected cells
T1 sequence (P48546 22-466): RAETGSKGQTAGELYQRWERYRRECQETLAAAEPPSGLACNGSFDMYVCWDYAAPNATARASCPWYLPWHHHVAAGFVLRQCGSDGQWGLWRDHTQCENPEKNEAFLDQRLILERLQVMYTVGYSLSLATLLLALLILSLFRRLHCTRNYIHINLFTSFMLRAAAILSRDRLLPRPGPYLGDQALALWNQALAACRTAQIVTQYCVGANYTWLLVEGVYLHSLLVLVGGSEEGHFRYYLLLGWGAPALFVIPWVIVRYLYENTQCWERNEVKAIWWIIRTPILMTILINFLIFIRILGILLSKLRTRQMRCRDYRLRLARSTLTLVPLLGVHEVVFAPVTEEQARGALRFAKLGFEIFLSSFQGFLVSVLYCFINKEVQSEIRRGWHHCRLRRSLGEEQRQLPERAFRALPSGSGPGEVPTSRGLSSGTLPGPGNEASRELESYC

T2: mouse GLP-1 receptor (mGLP-1r) (Mus musculus, UniProt O35659)
T2 construct: expressed in transfected cells; host or cells: HEK293s or CHO cells
T2 sequence (O35659 22-463): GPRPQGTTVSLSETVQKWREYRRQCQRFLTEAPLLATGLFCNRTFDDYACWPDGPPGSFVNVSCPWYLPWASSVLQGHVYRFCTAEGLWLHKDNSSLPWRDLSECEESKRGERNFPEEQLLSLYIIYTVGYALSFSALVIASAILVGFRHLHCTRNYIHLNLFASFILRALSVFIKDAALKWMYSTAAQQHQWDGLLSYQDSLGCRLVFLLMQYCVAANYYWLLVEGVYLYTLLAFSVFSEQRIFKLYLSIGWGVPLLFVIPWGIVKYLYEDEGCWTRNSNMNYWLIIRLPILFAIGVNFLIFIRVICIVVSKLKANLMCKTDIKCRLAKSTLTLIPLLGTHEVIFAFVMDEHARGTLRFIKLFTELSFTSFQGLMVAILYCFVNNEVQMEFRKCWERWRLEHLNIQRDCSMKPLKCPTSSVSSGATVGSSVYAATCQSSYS

T3: mouse GIP receptor (mGIPr) (Mus musculus, UniProt Q0P543)
T3 construct: expressed in transfected cells; host or cells: HEK293s or CHO cells
T3 sequence (Q0P543 19-460): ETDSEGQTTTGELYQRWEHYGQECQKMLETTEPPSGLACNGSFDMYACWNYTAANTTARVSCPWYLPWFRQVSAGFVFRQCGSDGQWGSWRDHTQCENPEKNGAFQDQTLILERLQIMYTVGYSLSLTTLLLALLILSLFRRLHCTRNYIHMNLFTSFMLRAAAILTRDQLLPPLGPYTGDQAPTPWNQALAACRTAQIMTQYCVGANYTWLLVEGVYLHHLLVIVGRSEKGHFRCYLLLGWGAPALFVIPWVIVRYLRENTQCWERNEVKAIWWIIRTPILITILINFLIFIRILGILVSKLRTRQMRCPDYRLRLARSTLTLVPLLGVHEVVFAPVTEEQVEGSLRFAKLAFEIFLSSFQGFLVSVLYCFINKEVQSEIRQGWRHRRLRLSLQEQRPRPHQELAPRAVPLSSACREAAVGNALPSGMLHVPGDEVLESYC

T4: rat GLP-1 receptor (rGLP-1r) (Rattus norvegicus, UniProt P32301)
T4 construct: expressed in transfected cells; host or cells: HEK293s or CHO cells
T4 sequence (P32301 22-463): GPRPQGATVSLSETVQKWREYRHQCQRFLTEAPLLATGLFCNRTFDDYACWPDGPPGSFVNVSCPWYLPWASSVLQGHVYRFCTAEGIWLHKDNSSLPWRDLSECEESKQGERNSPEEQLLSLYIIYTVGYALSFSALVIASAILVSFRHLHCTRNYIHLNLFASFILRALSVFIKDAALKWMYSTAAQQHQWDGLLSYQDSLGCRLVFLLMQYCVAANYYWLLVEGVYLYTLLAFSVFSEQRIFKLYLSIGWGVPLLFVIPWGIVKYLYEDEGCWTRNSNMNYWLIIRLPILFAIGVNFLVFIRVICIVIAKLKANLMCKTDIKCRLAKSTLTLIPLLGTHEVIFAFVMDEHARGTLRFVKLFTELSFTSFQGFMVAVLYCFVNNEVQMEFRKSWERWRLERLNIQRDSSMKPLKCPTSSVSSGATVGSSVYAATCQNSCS

T5: rat GIP receptor (rGIPr) (Rattus norvegicus, UniProt P43219)
T5 construct: expressed in transfected cells; host or cells: HEK293s or CHO cells
T5 sequence (P43219 19-455): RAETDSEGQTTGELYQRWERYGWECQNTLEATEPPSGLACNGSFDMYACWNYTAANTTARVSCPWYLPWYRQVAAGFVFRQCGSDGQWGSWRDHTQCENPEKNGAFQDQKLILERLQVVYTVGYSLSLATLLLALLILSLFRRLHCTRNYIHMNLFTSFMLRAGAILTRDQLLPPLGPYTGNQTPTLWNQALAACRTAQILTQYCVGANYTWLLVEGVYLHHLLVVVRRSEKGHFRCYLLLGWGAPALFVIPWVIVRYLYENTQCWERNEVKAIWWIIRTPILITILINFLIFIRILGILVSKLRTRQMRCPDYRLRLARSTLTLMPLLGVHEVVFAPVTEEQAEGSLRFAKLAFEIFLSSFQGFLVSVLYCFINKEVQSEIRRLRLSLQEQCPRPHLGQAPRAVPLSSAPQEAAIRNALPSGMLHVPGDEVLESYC

B1: IP301 (protein)
chain: YSEGTFTSDVSSYLEREAIDEFIAWLLKGGAAAGGSGSTASSGSGSATGGGGAATHTCPPC
B2: IP365 (protein)
chain: B1 chain with T5M, F6H, V10F, S12K, Y13L, E17Q
B3: IP366 (protein)
chain: B1 chain with V10Y, S11R, S12M, Y13L, L14K, E17Q
B4: IP307 (protein)
chain: B1 chain with L14M, E17Q, G29Q
B5: IP309 (protein)
chain: B1 chain with T7I, E17Q
B6: IP375 (protein)
chain: B1 chain with F6H, D9L, V10F, S12K, Y13L, E17Q
B7: IP373 (protein)
chain: B1 chain with F6H, V10F, S12K, Y13L, E17Q
B8: IP364 (protein)
chain: B1 chain with V10F, S12K, Y13L, E17Q
B9: IP306 (protein)
chain: B1 chain with V10Y, S12K, Y13L, E17Q
B10: IP310 (protein)
chain: B1 chain with L14M, E17Q, G30K
B11: IP315 (protein)
chain: B1 chain with T7I, V10Y, E17Q
B12: IP312 (protein)
chain: B1 chain with T7I, L14M, E17Q
B13: IP378 (protein)
chain: B1 chain with D9L, V10Y, S11R, S12I, Y13L, E17Q
B14: IP394 (protein)
chain: B1 chain with T5M, F6H, V10L, S12K, Y13L, E17Q

target: T6, human GLP-1 receptor (hGLP-1r) (Homo sapiens, UniProt P43220); experiment: BSA-cAMP assay, cells expressing human GLP-1 receptor; assay type: cell-based; conditions: Batch 1; BSA-cAMP assay; read-out: hGLP1r cAMP activity EC50
T6 construct: expressed in transfected cells
T6 sequence (P43220 24-463): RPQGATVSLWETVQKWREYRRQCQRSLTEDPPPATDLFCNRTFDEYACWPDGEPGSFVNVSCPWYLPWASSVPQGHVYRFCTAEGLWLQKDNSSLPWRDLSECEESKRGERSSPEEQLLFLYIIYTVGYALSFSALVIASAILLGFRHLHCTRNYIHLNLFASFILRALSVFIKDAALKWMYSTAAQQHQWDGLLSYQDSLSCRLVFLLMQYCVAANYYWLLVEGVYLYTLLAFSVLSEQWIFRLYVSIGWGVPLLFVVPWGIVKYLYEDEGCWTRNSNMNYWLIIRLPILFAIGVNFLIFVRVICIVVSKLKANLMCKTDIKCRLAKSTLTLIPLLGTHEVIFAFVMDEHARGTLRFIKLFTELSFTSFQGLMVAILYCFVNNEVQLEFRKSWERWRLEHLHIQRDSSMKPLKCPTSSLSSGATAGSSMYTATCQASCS
Protocol: (§1) One basic cAMP assays was performed, differing in the medium used for the assay, the “BSA-cAMP assay”:
(§2) BSA-based assay medium: 0.1% bovine serum albumin (BSA) in
(§3) In certain aspects, the assay can also be carried out in medium supplemented with serum albumin that corresponds to the receptor being tested, e.g., human serum albumin for testing cAMP activity at hGIPr or hGLP-1r, rat serum albumin for testing cAMP activity at rGIPr or rGLP-1r, and so on. […] All sample dilutions were made in duplicate.
(§4) A frozen cryo-vial of cells expressing the receptor of interest was thawed rapidly in a water-bath, transferred to pre-warmed assay media and spun at 240×g for 5 minutes. Cells were re-suspended in assay buffer at an optimized concentration (e.g., hGLP-1r and hGIPr cells at 0.5×10^5 cells/ml).
(§5) To this, 5 μL cell suspension was added and the plates incubated at room temperature for 30 minutes.
(§6) cAMP levels were measured using a commercially available cAMP dynamic 2 HTRF kit (Cisbio, Cat #62AM4PEJ), following the two step protocol as per manufacturer's recommendations. In brief; anti-cAMP cryptate (donor fluorophore) and cAMP-d2 (acceptor fluorophore) were made up separately by diluting each 1/20 in conjugate & lysis buffer provided in the kit. 5 μL anti-cAMP cryptate was added to all wells of the assay plate, and 5 μL cAMP-d2 added to all wells except non-specific binding (NSB) wells, to which conjugate and lysis buffer was added. […] Data was transformed to % Delta F as described in manufacturer's guidelines and then transformed to percent activation of maximal native agonist response and analysed by 4-parameter logistic fit to determine EC50 values.
(§7) We used unconstrained 4 parameter logistic fit of data, curve mid-point to determine EC50. This was tested on two occasions, not two batches.

EC50 [nM] | Molecule
0.31 | B1
0.87 | B2
6.1 | B3
1.6 | B4
7.7 | B5
4 | B6
0.72 | B7
0.18 | B8
0.1 | B9
0.35 | B10
> 5460 | B11
> 5310 | B12
17 | B13

target: T1, human GIP receptor (hGIPr); experiment: BSA-cAMP assay, cells expressing human GIP receptor; assay type: cell-based; conditions: Batch 1; BSA-cAMP assay; read-out: hGIPr cAMP activity EC50
Protocol: For human GIPr, two different lines were used, shown as “hGIPr” and “hGIPr (C3)” in Table 11.
as §1, §2, §3, §4, §5, §6, §7

EC50 [nM] | Molecule
0.12 | B1
0.0095 | B14
0.02 | B2
0.14 | B3
0.091 | B4
0.086 | B5
0.078 | B6
0.0054 | B7
0.0085 | B8
0.011 | B9
0.15 | B10
0.024 | B11
0.048 | B12

target: T7, human glucagon receptor (GCGr) (Homo sapiens, UniProt P47871); experiment: BSA-cAMP assay, cells expressing human glucagon receptor; assay type: cell-based; conditions: Batch 1, read-out: hGCGr cAMP activity EC50
T7 construct: expressed in transfected cells; host or cells: HEK293s or CHO cells
T7 sequence (P47871 26-477): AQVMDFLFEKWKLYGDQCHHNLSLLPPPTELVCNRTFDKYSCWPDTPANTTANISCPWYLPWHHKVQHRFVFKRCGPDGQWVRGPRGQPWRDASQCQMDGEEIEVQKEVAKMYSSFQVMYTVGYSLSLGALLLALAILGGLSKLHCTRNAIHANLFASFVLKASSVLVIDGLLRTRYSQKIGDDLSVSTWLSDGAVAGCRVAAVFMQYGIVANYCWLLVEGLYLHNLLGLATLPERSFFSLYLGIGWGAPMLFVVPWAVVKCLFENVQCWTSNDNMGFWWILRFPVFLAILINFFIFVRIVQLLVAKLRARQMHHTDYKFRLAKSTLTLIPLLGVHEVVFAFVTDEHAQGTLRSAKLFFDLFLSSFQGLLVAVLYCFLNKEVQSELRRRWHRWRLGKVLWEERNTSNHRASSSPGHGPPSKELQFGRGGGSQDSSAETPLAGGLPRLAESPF
Protocol: as §1, §2, §3, §4, §5, §6, §7

EC50 [nM] | Molecule
12000 | B1
> 17600 | B14
> 10700 | B2
> 10200 | B3
4100 | B4
900 | B5
> 11700 | B6
> 6790 | B7
610 | B8
220 | B9
3700 | B10
280 | B11
> 5310 | B12
> 2250 | B13

target: T2, mouse GLP-1 receptor (mGLP-1r); experiment: BSA-cAMP assay, cells expressing mouse GLP-1 receptor; assay type: cell-based; conditions: Batch 1; BSA-cAMP assay; read-out: mGLP1r cAMP activity EC50
Protocol: as §1, §2, §3, §4, §5, §6, §7
(§8) In order to be able to carry out in vivo studies in rodents, IP088 was tested for potency against the mouse receptors mGIPr and mGLP-1r as well as the rat receptors rGIPr and rGLP-1r, using cells expressing the respective receptors in the cAMP assay described above.

EC50 [nM] | Molecule
1.9 | B1
10 | B14
11 | B2
100 | B3
6.5 | B4
16 | B5
49 | B6
9.2 | B7
0.69 | B8
0.25 | B9
1.4 | B10
> 5460 | B11
> 1060 | B12
100 | B13

target: T3, mouse GIP receptor (mGIPr); experiment: BSA-cAMP assay, cells expressing mouse GIP receptor; assay type: cell-based; conditions: Batch 1; BSA-cAMP assay; read-out: mGIPr cAMP activity EC50
Protocol: as §1, §2, §3, §4, §5, §6, §7, §8

EC50 [nM] | Molecule
22 | B1
10 | B14
17 | B2
0.056 | B3
31 | B4
15 | B5
0.65 | B6
3.2 | B7
0.5 | B8
0.25 | B9
31 | B10
0.36 | B11
16 | B12
3.1 | B13

target: T4, rat GLP-1 receptor (rGLP-1r); experiment: BSA-cAMP assay, cells expressing rat GLP-1 receptor; assay type: cell-based; conditions: Batch 1; BSA-cAMP assay; read-out: rGLP1r cAMP activity EC50
Protocol: as §1, §2, §3, §4, §5, §6, §7, §8

EC50 [nM] | Molecule
0.058 | B1
0.23 | B14
1.5 | B2
14 | B3
0.21 | B4
1.7 | B5
3.9 | B6
0.9 | B7
0.058 | B8
0.015 | B9
0.038 | B10
13 | B11
5.4 | B12

target: T5, rat GIP receptor (rGIPr); experiment: BSA-cAMP assay, cells expressing rat GIP receptor; assay type: cell-based; conditions: Batch 1; BSA-cAMP assay; read-out: rGIPr cAMP activity EC50
Protocol: as §1, §2, §3, §4, §5, §6, §7, §8

EC50 [nM] | Molecule
4.7 | B1
0.06 | B14
0.12 | B2
0.016 | B3
5.2 | B4
1.3 | B5
0.07 | B6
0.035 | B7
0.02 | B8
0.026 | B9
5.2 | B10
0.096 | B11
1.2 | B12
0.4 | B13
